Holding throughout (assay): cell_activity
One data set has as its system SBS52742 ZFN. The following applies: pair 52774:52742, K562, 500 ng/ZFN.
A further data set relates to SBS53909 ZFN. The following applies: pair 53885:53909, K562, 500 ng/ZFN.
The next data set has as its system SBS53759 ZFN. The following applies: pair 55204:53759, K562, 500 ng/ZFN.
The subject of data set [1] is SBS68815 ZFN Qm5 in F1,F3,F5; FokI R416E. The following applies: 55266-2A-68815, T cells, 12 ug mRNA.
The subject of data set [2] is SBS68879 ZFN Qm5 in F1,F3,F5; FokI K525S. The conditions noted are these: 55266-2A-68879, T cells, 12 ug mRNA.
The test system of the next data set is SBS57071 ZFN. The conditions noted are these: pair 57071/68957, background corrected.
A further data set relates to SBS72748 ZFN FokI Q481D. The following applies: pair 72748/68957, background corrected.
A further data set concerns SBS53863 ZFN. The conditions noted are these: pair 53860:53863, K562, 500 ng/ZFN.
Another data set deals with SBS55287 ZFN. The following applies: pair 53856:55287, K562, 500 ng/ZFN.
Another data set relates to SBS55229 ZFN. The following applies: pair 55229:53785, K562, 500 ng/ZFN.
For data set [3], the system named is SBS68812 ZFN Qm5 in F1,F3 (nQm5s [sic]),F4; FokI R416E. The following applies: 68812-2A-68813, T cells, 12 ug mRNA.
The subject of data set [4] is SBS68876 ZFN Qm5 in F1,F3 (nQm5s [sic]),F4; FokI K525S. The following applies: 68876-2A-68877, T cells, 12 ug mRNA.
The next data set deals with SBS55260 ZFN. The following applies: pair 55248:55260, K562, 500 ng/ZFN.
The next data set relates to SBS55255 ZFN. The following applies: pair 53810:55255, K562, 500 ng/ZFN.
Data set [5] deals with SBS68796 ZFN Qm5 in F1,F3 (nQm5s [sic]),F4. The conditions noted are these: 68796-2A-68813, T cells, 12 ug mRNA; off-target at background.
In the next data set the test system is SBS55254 ZFN. The following applies: pair 55248:55254, K562, 500 ng/ZFN.
The next data set has as its system SBS55204 ZFN. The conditions noted are these: pair 55204:53759, K562, 500 ng/ZFN.
Another data set deals with SBS53785 ZFN. The following applies: pair 55229:53785, K562, 500 ng/ZFN.
Another data set relates to SBS53810 ZFN. The conditions noted are these: pair 53810:55255, K562, 500 ng/ZFN.
The next data set relates to SBS68957 ZFN FokI K525S. The following applies: pair 57071/68957, background corrected.
Another data set has as its system SBS57531 ZFN. The following applies: pair 72732/57531, background corrected.

For “TCCTCCTGAAAGTGGCCGGGTTTAATCT (double strand) [TCRA site G right]”, the activity amounted to 84.4 % NHEJ in the data set with SBS52742 ZFN and 90.2 % NHEJ in the data set with SBS53909 ZFN.
On to “GTGCTGTGGCCTGGAGCAACAAATCTGA (double strand) [TCRA site of 53759]”, for which, in the data set with SBS53759 ZFN, the activity was 87.7 % NHEJ.
Regarding “AACAGGTAAGACAGGGGTCTAGCCTGGG (double strand) [TCRA site E right]”, the results for the activity in [1] and in data set [2] were 97.6 % indels and 96.3 % indels, respectively.
On to “GCCACGGAGCGAGACATCTCGGCCCGAA (double strand) [B2M site of 57071]”, for which the activity in the data set on SBS57071 ZFN came out at 91.6 % indels; in the data set with SBS72748 ZFN FokI Q481D it was 93.4 % indels.
Turning to “TTCAAGAGCAACAGTGCTGTGGCCTGGA (double strand) [TCRA site F right]”, the activity worked out at 87.3 % NHEJ in the data set on SBS53863 ZFN and 74.8 % NHEJ with SBS55287 ZFN.
As to “CTGTTGCTCTTGAAGTCCATAGACCTCA (double strand) [TCRA site of 55229]”, the activity in the data set with SBS55229 ZFN amounted to 93.6 % NHEJ.
On to “CTCCTGAAAGTGGCCGGGTTTAATCTGC (double strand) [TCRA site D left]”, for which the activity in data set [3] worked out at 99.9 % indels; in data set [4], 99.2 % indels; in the data set with SBS55260 ZFN it was 93 % NHEJ; in the data set on SBS55255 ZFN, 91.5 % NHEJ; in data set [5], 99.3 % indels; with SBS55254 ZFN, 96.2 % NHEJ.
“TTGCTCTTGAAGTCCATAGACCTCATGT (double strand) [TCRA site of 55204]” came in with an activity in the data set on SBS55204 ZFN of 87.7 % NHEJ.
“CTGTGGCCTGGAGCAACAAATCTGACTT (double strand) [TCRA site of 53785]”: the activity in the data set with SBS53785 ZFN was found to be 93.6 % NHEJ.
Take “AGGATTCGGAACCCAATCACTG (double strand) [TCRA site of 53810]”: the activity with SBS53810 ZFN amounted to 91.5 % NHEJ.
Take “GAGTAGCGCGAGCACAGCTAAGGCCACG (double strand) [B2M site of 57531]”: the activity with SBS68957 ZFN FokI K525S is 91.6 % indels; in the data set with SBS57531 ZFN, 95.8 % indels.

Source of the values: patent US20180362926.
